Test results: the DeepSol protein solubility set

Assay: soluble on expression in E. coli; label from the status in PepcDB or PDB records

Sequence	soluble on expression in E. coli
MRKLKYQRDFFPLLHLNYGSNWRCGMDRIAYFKSLLEKNPDNPMVHYSLGLEYFKVKDYENAIKHLERYLELQEDEGAAYRTLAKCYEELGEFQKAIEVLEEGIRQAMKYNHPSMAQEYQQWIEELKGMAFLEHHHHHH	not soluble
MSLKGVSYTSEQKTRIVLEMLKEEETLAQIASRYQVTSQTLNSWKRQFLANASLAFEPAKALQEYKDQIQSKEQEIEELQKQLGKSVAEKEWLAKKLEGLDLSNKKALVESKPETISIARQCELLGISRSAYYYKPISLSRANLQIMHAIGEIATDNAEYGYRFIHQQLLEDGYRIGKERVLKYMRVMNLRALYPKKRKHTSIHNLEYKRYPYLLSQYHNSKKQVVVDRPGEVWSGDITYIRMNGGFMYLCAIIDWHSKAILAYKISNTMDASLAVDTLKEALQTHPAPRIFNSDQGSQYTSEEHTRLLEEHQIAISMNGKGRSIDNIAIERFFRTLKHSSIYINDYRTIKELKEGIKNYIHKYNFKRFHSSIEYRKPMNVYLEAQTVAEGHHHHHH	not soluble
PHANGLEQISGGDTNMFRLAKEQGYETYFYSAQAENEMAILNLIGKKWIDHLIQPTQLGYGNGDNMPDEKLLPLFDKINLQQGKHFIVLHQRGSHAPYGALLQPQDKVFGEADIVDKYDNTIHKTDQMIQTVFEQLQKQPDGNWLFAYTSDHGQYVRQDIYNQGTVQPDSYLVPLVLYSPDKAVQQAANQAFAPCEIAFHQQLSTFLIHTLGYDMPVSGCREGSVTGNLITGDAGSLNIRDGKAEYVYPQ	not soluble
APQGINQFALLLNKQDTLTEFDTLVPGRFQAMRDGTRVTYTEELSKDRGELAGIFISQKDLNSSNQERGISILVAEKGTQNIQADGSRYLILHNGYRYDGNPGQANYRAIQYDTYGVMLPKPEASSEVSERDAVPTADLFGSDNPRYQAELQWR	not soluble
MAHHHHHHMKNFFILHLRNNYSIFLNKPLQVFTLNVKLNSHVKVNYKHELLTYEFRKITYVKKKKKKSYHNCDGRYITTLNKTININEKYSKLKNDGLLNSTPDNHIKDNIIKEDLLYRKNNEKENEEVIKSNIDENKNVHMNDQNEQNKHCYNKLLIESCCHIDKDVKKSLLEIFQYKEFTDVQRIVYDNIIKEKKQNDLLIQAKTGTGKTIAYLLLSINDIIKNKILSVHTLIIVPTRELANQIYNECKLLLTYKHNINVLTLTGGIKRRDDQLNIRRIKPDIIICTVGRLLDHFESTYLFNTLFENLKMLIIDEADQLLSTGYENDIHRLLTYLPSNRRNILLSATLGYNLDEIRKKMCKSDYIYLNCVKDISKHTSDQLIQYVLFHKAIDTTIILYNLLIEHMRLNQFTYKIIVFFPTARATSFYAQFFINQLKISVYEIHRKKEMAHRQITANRFSMESVGILFTSDISSRGLNYPDITLIIQVNTPISREQYIHRVGRTARSNKKGMAIILLNEADELFYQEIKDLNIQKLNAQNYTLKNTNLSNYLSTWMSNTQLLYLAYAYYSSILRFYKTKYTHLKINDDEIIDAVNNMLLSTGLVEQPYISRNLATTLNMQNNVKLKIRKDLDDILLL	not soluble
MNQVAPFYADHVGSILRTKGIKDAREKFQSGEITALELRKIENTEIKYIVEKQKEVGLKSITDGEFRRAWWHFDFLENLDGVEGYDAAGGIQFSKVQTKSHSVKITGPIDFTTHPFIEDFIFLKEAVGDNHVAKQTIPSPAMLHYRGDIEYQPYLDDAEKFANDLATAYQKAIQAFYDAGCRYLQLDDTSWSYLCSDEQREVVRQRGFDPETLQETYKNLINEAIKHKPADMVITMHICRGNFRSTWIAEGGYGPVAETLFGKLNIDGFFLEYDNERSGDFAPLKYVTRPDLKIVLGLITSKTGELEDEAAIKARIEEASEIVPLSQLRLSPQCGFASTEEGNILTEEEQWDKLRYVVRLANDIWGELEHHHHHH	soluble
MKVLILTVGTTREPLEVALAEHAPQGVVFLASQASHPVAAELVRDYGGSFRHHTLLLEDAESLMEAYQKALLALRKALEWEATAIVADLTGGTKPMAAGLVLALTGRGVVFSYVGGEARDPGTGRVLAGKERLRLLEDPTARLGLKEWAGFTRAWNALNLGMALAELESLLRRDLSPSEARFYGAMKGVVEGLMEWDRFRHREAWERLSVHLPLALAVAEAWGHGAKVRVLKGLEALLPHLKGIVEAGPKPTFLLLQDLLANAERRAALGRFDDALARLYRALELAVEADVHERLGFSLKDPRTWPEGFPEGLRERILKPRGLMDLLDAAFDLDLAFGEQGTLAQRLYGEKNRLQALLQRRHESILAHGTRPVGEEDYTALRDFLMRLDERLRPLPPWPRF	soluble
MDYKMNNLQLEALLNETLSPQLIKDYCPNGLQVEGKVEVKRIVTGVTASMALIEAAIELKADALLVHHGYFWKNEPEAIRGMKGRRIRTLIQNDLNLYAYHLPLDIHPQLGNNAQLAQRLGICVDGGLEGHPQSVAMFGHFLQPLTGEELAHRIGQVLNRTPLHIAPDQADKLIETVGWCTGGGQDYIELAASRGLDAFISGEISERTTYSAREQSIHYFSAGHHATERYGIKALGEWLAENHGFDVTFIDIDNPVLEHHHHHH	soluble
AIAIRTKQSEAKSKGDTLRQLELAALMTHCNMLITHQQLALQAAMKLAYATKNYLYALAFAKRLLELAPNEEMERTAKKVMQFCERNPNNQNQLDYDIEQSNFAIDAGRLKPCIQPPTKSCVYCGACYDESWHSMTCVVCQVAQD	soluble
MPVVNIPIKILGQNQSHSRSNSSSSVDNDRNQPPQQPPQPQPQQQSQQQYQQAPNVNTNMHHSNGFSPNFPSRSPIPDFPSFSSGFPNDSEWSSNFPSFPNFPSGFSNGSSNFPDFPRFGRDGGLSPNPPMQGYRRSPTPTSTQSPTSTLRRNSQQNQAPPQYSQQQPQQAQQRQTTPPSTKASSRPPSRTREPKEPEVPERPAVIPLPYEKKEKPLEKKGSRDSGKGDENLEENIAKITIGKNNCELCPEQETDGDPSPLTSPITEGKPKRGKKLQRNQSVVDFNAKTIVTLDKIELQVEQLRKKAAELEMEKEQILRSLGEISVHNCMFKLEECDREEIEAITDRLTKRTKTVQVVVETPRNEEQKKALEDATLMIDEVGEMMHSNIEKAKLCLQTYMNACSYEETAGATCQNFLKIIIQCAADDQKRIKRRLENLMSQIENAERTKADLMDDQSE	not soluble
MNCYNKFAHIYDKLIRADVDYKKWSDFIIEKCVENNLVFDDYLDLACGTGNLTENLCPKFKNTWAVDLSQEMLSEAENKFRSQGLKPRLACQDISNLNINRKFDLITCCLDSTNYIIDSDDLKKYFKAVSNHLKEGGVFIFDINSYYKLSQVLGNNDFNYDDDEVFYYWENQFEDDLVSMYISFFVRDGEFYKRFDEEHEERAYKEEDIEKYLKHGQLNILDKVDCYSNKKVEKFTERITYLVKLGGKSNGR	soluble
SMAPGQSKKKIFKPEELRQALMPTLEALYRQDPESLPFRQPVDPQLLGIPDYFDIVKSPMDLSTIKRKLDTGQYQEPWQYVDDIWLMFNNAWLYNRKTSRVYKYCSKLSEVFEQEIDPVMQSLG	soluble
VTQLPQPTWRWWQQRETEQVQSSHIDGEIVGALIPDLAVLHSEDASRAAVGREKHRCSLDPLGGGFRSRRASMPAGALLLSAVIAIQLDRMNARVFGDGWIGAQACMWVNKFHEESTVTALSPSSPIAQGSIARHPETMQSAYVRIAEGGSRDVAPAAQLQRRRP	not soluble
YDPSKDPSSSLARRNLIIGLMEKAGFITHAQAVRAKATPLVLHYTPVTQQGLAPYFTEYIRQTIKSSSMLEGVNVYRDGL	not soluble
MFKLFTARQHDKIWDFDGGIHPPEMKLQSSTVPMRIAPLPDQLIIPLQQHLGPEGELRVRAGEQVLKGQPLTVGRGRTVPVHAPTSGMITAIAPHTTAHPSGLAELCVHITPDGEDRWREQQPWADYRQRDKMALLDRIHQAGIAGLGGAGFPTASKLQGGLNGIITLIINAAECEPYITADDRLMQEHADEVITGIHILRHLLQPQQVLIGIEDNKPEAIAALQRALRGQDDIHLRVVPTKYPSGGAKQLTKILTGKEVPFGKHSSSIGVLMQNVGTVVAIKRAVIDDEPLIERVVTLTGDALSSPGNFWARIGTPVLYLLKLAGFKPQNPPMVIMGGPLMGFTLPSLDVPIVKISNCILAPAETEMGLSEPEQSCIRCGLCVDACPAGLLPQQLYWFSRGEEHEKARNHNLFDCIECGACAYVCPSNIPLVQYYRQEKAEIRALDQESARAAEAKARFEAKQARLAREKLARELRHKQAAVKLTDADQQTVDAAVSRLTRQSDGSESVINIPAGQMPDNSAVIAAREARKAQARARQAEKQQARSTEETTDVVDPRQAAVAAAIARVKAKKAVQAQHVTTDVAEAGSEAMAEDPRKAAVAAAIARVKAKKAAQAINPD	not soluble
MHFFDTHTHLNYLQQFTGEPLSQLIDNAKQADVQKILVVAVKEADFKTIQNMTALFPDNLCYGLGLHPLYIQEHAENDLILLEQALKNRDTNCTAVAEIGLERAIPDLLTDELWAKQCHFFESQLYLAKQFNLPVNIHSRKTHDQIFTFLKRIPLSKLGVVHGFSGSYDQAKRFVDLGYKIGVGGTITYERANKTRQAIAKLPLDALVLETDSPDMPVFGFQGQPNRPERIVESFKALCTLRNEPAELIKKLTWENACQIFSLEHHHHHH	not soluble
MRGSHHHHHHGSTTFNIQDGPDFQDRVVNSETPVVVDFHAQWCGPCKILGPRLEKMVAKQHGKVVMAKVDIDDHTDLAIEYEVSAVPTVLAMKNGDVVDKFVGIKDEDQLEAFLKKLIG	soluble
MAISLRQLEIFEKVAQCEHVTQASTQLFLTQSAVSMAIAELERVAGAPLFERRGKRLLLNDRGRKILPEAEEVVRRTRAIEQFLEDSAGEPRGVLNVGASTTIGNYILPELIAEFSGNYPDAKVLLTIGNAHQIEHALEKGELDLGLIEGIPHSGVLDSTPWKKDELVVVVGKGHPWACDGAASVEMLGNAPWIMRETGSGTREVFEGAMAGKGISFSISLELGHTEAIKKAIEAGLGVGCLSRIAVNRELEHGWLVEIACPLDLKRTLSLQTRQSGYKTRLLCAFWSLLNRHKDI	not soluble
MGSDKIHHHHHHMINSGNGTDYESMRFDRRGQAEAFDAIGDRYDEAFPHKEGQVSVGEWLIGSLPPRSRVLDLGCGTGMPTARQLTDAGFDVVGVDLSGGMVELARAYVPGATFHQLDVADLRPGGSRDLGRFDAVAAFFSLLMLPRPEIPLALLTVRHLLVPGGLFALAMVEADVDDFSIPFVGHTIRVSGYLREDLHTVIETAGFEIVKEFSYTYAPSVADVPPEEQVFLCCRRRG	not soluble
MNWKQEFSRWLSYAELDAELKEQLENMKQDEKKIEDSFYKNLEFGTGGMRGELGAGTNRLNVYTVRKATQGLAKFIEKLGEEAKKRGVVVAYDSRHKSPEFAMEVAATLGAHGITTYVFESLRPTPVLSFAVRHLHTVSGIVLTASHNPPEYNGYKVYGEDGGQLPPKEADELISYVNAVEDELTVEVADVEQLKADGLLHMIGQEVDDAYAAELNNVIINKEMVQKVGKDLKIVFTPLHGTSNLSVRRGLAEVGFTDVTVVKEQELPDPNFSTVKSPNPEEHAAFEYAIRDGEKVGADVLIATDPDADRLGVAVRNHDGEFQVLTGNQTGALMLDYLLSQKKENGTLPENGVVLKTIVTSEIGRTIAKAYGLDTVDTLTGFKFIGEKIKQYEESGQYEFQFGYEESYGYLIRPFCRDKDAVQSVLFACEVAAYYKSQGKTLYDGLLEVFEKYGFFREDLVSLTLKGKDGAEQIQEMMATFRENPPKEVAGLTVVAVEDYKASIITSLQDGHKEEIHLPKSNVLKYQLEDGSWFCLRPSGTEPKIKFYFGVQDNSLQNSEQKLLTIKEDIMNRL	not soluble
